The target in the assay is T1, CD19 on Nalm-6 cells (UniProt P15391 20-556, limits assumed).
T1 construct: whole, on cells; also called Nalm-6 cells (CD19 positive cells)
T1 sequence (looked up): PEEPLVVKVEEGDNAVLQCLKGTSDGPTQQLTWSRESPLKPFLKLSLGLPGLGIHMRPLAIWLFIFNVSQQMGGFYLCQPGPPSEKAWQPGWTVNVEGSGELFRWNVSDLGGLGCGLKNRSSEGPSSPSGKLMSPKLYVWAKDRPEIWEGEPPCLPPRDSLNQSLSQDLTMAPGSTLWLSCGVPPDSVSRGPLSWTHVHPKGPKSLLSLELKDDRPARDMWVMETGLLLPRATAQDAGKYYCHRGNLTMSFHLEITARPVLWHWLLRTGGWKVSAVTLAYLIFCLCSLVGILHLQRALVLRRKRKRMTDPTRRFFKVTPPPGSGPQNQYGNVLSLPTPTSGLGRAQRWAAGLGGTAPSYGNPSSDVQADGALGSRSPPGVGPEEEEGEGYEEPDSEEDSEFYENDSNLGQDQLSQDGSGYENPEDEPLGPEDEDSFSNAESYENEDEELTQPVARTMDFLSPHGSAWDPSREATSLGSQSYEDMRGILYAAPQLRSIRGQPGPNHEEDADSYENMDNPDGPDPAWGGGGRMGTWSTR
Briefly: flow cytometry on Nalm-6 cells, 10 nM, fluorescent anti-human IgG secondary antibody.

Procedure: Nalm-6 and K562 cells were cultured according to vendor's protocol. Cells were centrifuged and blocked in 1× PBS with 10% FBS at 4° C. for 1 hour. […] The cell suspensions were shaken for 1 hour at 4° C. The cells were washed 3 times with PBS. The cells were incubated with a secondary antibody (e.g., Fluorescein-anti-human IgG or A488-anti-hIgG) at 4° C. for 1 hour. The cells were washed 3 times with PBS and resuspended in PBS. The cellular fluorescence distribution was determined by flow cytometry.

B1: anti-CD19ScFv-UCHT1-CL(Fab) (bispecific antibody)
heavy: EVQLQQSGPELVKPGASMKISCKASGYSFTGYTMNWVKQSHGKNLEWMGLINPYKGVSTYNQKFKDKATLTVDKSSSTAYMELLSLTSEDSAVYYCARSGYYGDSDWYFDVWGQGTTLTVFSASTKGPSVFPLAPSSKSTSGGTAALGCLVKDYFPEPVTVSWNSGALTSGVHTFPAVLQSSGLYSLSSVVTVPSSSLGTQTYICNVNHKPSNTKVDKKVEPKSC
light: DIQMTQTTSSLSASLGDRVTISCRASQDIRNYLNWYQQKPDGTVKLLIYYTSRLHSGVPSKFSGSGSGTDYSLTISNLEQEDIATYFCQQGNTLPWTFAGGTKLEIKRTVAAPSVFIFPPSDEQLKSGTASVVCLLNNFYPREAKVQWKVDNALQSGNSQESVTEQDSGGGGSGGGGSGGGGSEVKLQESGPGLVAPSQSLSVTCTVSGVSLPDYGVSWIRQPPRKGLEWLGVIWGSETTYYNSALKSRLTIIKDNSKSQVFLKMNSLQTDDTAIYYCAKHYYYGGSYAMDYWGQGTSVTVSSGGGGSGGGGSGGGGSDIQMTQTTSSLSASLGDRVTISCRASQDISKYLNWYQQKPDGTVKLLIYHTSRLHSGVPSRFSGSGSGTDYSLTISNLEQEDIATYFCQQGNTLPYTFGGGTKLEIGGGGSDSTYSLSSTLTLSKADYEKHKVYACEVTHQGLSSPVTKSFNRGEC
Turning to B1, the binding result is recorded as “binds”.

The record behind these values is patent US20170210818A1 (CALIFORNIA INSTITUTE FOR BIOMEDICAL RESEARCH, published 2017).
